Laboratory results: publication PMC6026317, “Molecular elements in FGF19 and FGF21 defining KLB/FGFR activity and specificity” (Molecular Metabolism, 2018)

Key:
[1] = target: T1, Soluble human FGFR1c/KLB receptor complex (FGFR1c ectodomain-Fc with soluble KLB) (human, UniProt P11362 22-376; Q86Z14 1-996); assay: AlphaScreen or HTRF; cell-free competition: biotinylated FGF21 on streptavidin donor beads, FGFR1c-Fc or FGFR4-Fc ectodomain on Protein A acceptor beads, human soluble KLB added to give the signal; 5 μg/ml heparin, 0.1% BSA; increasing doses of unlabelled protein or peptide displace biotinylated FGF21; settings: both partners purified
T1 construct: human FGFR1c ectodomain fused to Fc, coupled to Protein A acceptor beads; human beta-Klotho (KLB) protein, called human soluble KLB; also called FGFR1/KLB complex; soluble FGFR1/KLB receptor complex; source: bought: R&D Systems (both chains)
T1 sequence (looked up) 1: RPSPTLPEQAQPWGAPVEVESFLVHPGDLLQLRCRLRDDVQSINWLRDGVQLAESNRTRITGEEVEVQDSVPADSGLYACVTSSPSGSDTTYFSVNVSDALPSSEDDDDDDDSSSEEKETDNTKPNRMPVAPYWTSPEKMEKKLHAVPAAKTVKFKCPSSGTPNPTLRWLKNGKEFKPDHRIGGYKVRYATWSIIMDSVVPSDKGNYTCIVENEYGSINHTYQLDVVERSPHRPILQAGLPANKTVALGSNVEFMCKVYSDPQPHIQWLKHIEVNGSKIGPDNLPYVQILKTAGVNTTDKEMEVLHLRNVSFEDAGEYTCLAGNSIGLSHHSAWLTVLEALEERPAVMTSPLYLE
T1 sequence (looked up) 2: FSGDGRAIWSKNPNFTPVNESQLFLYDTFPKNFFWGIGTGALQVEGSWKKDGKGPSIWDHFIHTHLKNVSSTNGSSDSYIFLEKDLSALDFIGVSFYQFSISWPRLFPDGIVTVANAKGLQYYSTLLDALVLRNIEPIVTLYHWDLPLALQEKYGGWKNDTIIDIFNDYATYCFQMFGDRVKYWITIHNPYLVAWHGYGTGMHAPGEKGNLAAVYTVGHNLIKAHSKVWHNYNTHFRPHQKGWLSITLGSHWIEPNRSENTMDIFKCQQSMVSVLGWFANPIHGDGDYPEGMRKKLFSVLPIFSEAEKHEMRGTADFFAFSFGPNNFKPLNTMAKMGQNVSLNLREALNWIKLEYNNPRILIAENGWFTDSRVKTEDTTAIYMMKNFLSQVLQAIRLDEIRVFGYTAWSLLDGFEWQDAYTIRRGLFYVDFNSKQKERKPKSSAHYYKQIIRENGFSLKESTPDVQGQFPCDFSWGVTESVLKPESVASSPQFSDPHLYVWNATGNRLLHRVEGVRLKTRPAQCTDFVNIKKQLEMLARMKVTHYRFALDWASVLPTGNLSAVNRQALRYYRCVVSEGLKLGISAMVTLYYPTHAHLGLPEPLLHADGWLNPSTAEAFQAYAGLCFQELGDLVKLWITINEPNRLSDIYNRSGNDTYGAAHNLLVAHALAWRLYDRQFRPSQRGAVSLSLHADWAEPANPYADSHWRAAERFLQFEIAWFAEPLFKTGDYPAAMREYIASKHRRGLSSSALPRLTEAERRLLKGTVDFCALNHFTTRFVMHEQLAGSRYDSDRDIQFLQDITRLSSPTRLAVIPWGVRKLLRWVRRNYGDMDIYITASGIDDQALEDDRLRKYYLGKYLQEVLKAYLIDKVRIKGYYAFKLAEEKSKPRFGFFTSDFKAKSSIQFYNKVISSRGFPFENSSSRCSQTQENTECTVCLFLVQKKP

[2] = target: T2, Soluble human FGFR4/KLB receptor complex (FGFR4 ectodomain-Fc with soluble KLB) (human, UniProt P22455 22-369; Q86Z14 1-996); assay: as above; settings: both partners purified
T2 construct: human FGFR4 ectodomain fused to Fc, coupled to Protein A acceptor beads; human beta-Klotho (KLB) protein, called human soluble KLB; also called hFGFR4/KLB; source: bought: R&D Systems (both chains)
T2 sequence (looked up) 1: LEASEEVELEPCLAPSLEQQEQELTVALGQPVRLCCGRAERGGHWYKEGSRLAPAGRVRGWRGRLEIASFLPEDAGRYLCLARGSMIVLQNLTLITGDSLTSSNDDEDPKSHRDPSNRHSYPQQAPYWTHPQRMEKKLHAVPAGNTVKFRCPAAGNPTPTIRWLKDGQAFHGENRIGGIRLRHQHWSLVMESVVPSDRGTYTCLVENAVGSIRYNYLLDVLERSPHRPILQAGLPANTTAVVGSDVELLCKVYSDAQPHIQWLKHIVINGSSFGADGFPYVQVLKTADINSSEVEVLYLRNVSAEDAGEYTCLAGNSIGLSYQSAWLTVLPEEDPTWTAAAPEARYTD
T2 sequence (looked up) 2: T1 sequence (looked up) 2

IC50 [1]: 123 nM
IC50 [2]: 1220 nM
B1: Human FGF21 (1-181) (ligand, UniProt Q9NSA1 29-209, looked up)
chain: HPIPDSSPLLQFGGQVRQRYLYTDDAQQTEAHLEIREDGTVGGAADQSPESLLQLKALKPGVIQILGVKTSRFLCQRPDGALYGSLHFDPEACSFRELLLEDGYNVYQSEAHGLPLHLPGNKSPHRDPAPRGPARFLPLPGLPPALPEPPGILAPQPPDVGSSDPLSMVGPSQGRSPSYAS
notes: also called fibroblast growth factor 21; native FGF21; source: E. coli OrigamiB (DE3), purified (Ni-NTA, SUMO protease digestion, Q-Sepharose)
